Data as given in article PMC10272136, “Molecular mechanisms of Holliday junction branch migration catalyzed by an asymmetric RuvB hexamer” (Nature Communications, 2022).
Several values for one entry are separate records, joined by “and”; a condition that tells them apart may be missing. Equal entries are not always repeated.

Assays:
[1] = target: the molecule itself; assay: cryo-EM structure; RuvB mixed with annealed HJ DNA at 1:6 (DNA/RuvB monomer) in 20 mM Tris-HCl pH 7.5, 10 mM MgCl2, 1 mM DTT, 2 mM ATP-γ-S, 30 min at 37 °C; complex purified by gel filtration; two maps (hexamer 2.97 Å, C1; dodecamer 3.2 Å, C2)
[2] = target: T1, RuvB (Thermus thermophilus, UniProt Q5SL87 1-324); assay: gel filtration; 2 mM ATPgS, 10 mM MgCl2; DNA:RuvB monomer 1:6; 20 mM Tris-HCl pH 7.5, 10 mM MgCl2, 1 mM DTT, 2 mM ATPgS, 30 min at 37 C; gel filtration in 20 mM Tris-HCl, 150 mM NaCl; conditions: protein: recombinant; tags: N-terminal His tag (pET-28a, NdeI/SalI); chain copies: 6; four-way junction of 4 strands, 1 copy each
T1 sequence: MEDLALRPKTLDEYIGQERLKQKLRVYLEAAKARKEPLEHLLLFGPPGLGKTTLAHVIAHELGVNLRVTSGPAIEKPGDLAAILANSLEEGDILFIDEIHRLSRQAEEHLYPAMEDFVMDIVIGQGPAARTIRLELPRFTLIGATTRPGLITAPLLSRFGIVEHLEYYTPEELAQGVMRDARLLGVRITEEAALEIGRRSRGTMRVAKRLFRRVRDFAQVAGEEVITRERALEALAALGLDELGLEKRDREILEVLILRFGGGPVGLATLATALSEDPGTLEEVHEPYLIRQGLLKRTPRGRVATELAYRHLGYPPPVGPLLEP

[3] = target: T2, RuvA (Thermus thermophilus, UniProt Q9F1Q3 1-191); assay: cryo-EM structure; from RuvA-RuvB-HJ sample; RuvA tetramer binds HJ core; 20 mM Tris-HCl pH 7.5, 10 mM MgCl2, 1 mM DTT, 2 mM ATPgS, 30 min at 37 C; gel filtration in 20 mM Tris-HCl, 150 mM NaCl; conditions: protein: recombinant; tags: N-terminal His tag (pET-28a, NdeI/XhoI); chain copies: 4; four-way junction of 4 strands, 1 copy each
T2 sequence: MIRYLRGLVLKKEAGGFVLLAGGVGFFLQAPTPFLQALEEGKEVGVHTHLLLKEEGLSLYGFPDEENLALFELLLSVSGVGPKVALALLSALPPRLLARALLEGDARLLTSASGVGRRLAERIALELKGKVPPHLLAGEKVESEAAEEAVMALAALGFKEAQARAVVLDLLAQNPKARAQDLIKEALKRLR

[4] = target: the molecule itself; assay: cryo-EM structure; sample of RuvA, RuvB and HJ DNA (6:4:1 RuvB:RuvA:HJ DNA); only a RuvA-HJ DNA structure was obtained; C4 symmetry, 4.3 Å

B1: Thermus thermophilus RuvB (enzyme, UniProt Q5SL87 1-324, looked up)
chain: T1 sequence
notes: RuvB, Holliday junction branch migration ATPase (AAA+), Thermus thermophilus; printed MW 35,973; Purified RuvB carried endogenous ADP (native mass spectrometry); It forms the hexamer and dodecamer only in the sample with DNA and ATPγS; also called T. thermophilus RuvB; RuvB protomer; source: E. coli BL21(DE3) RipL, purified (heat step at 55 °C, Ni-NTA, Superdex 200 gel filtration)
stoichiometry N [1]: 6 and 12

B2: HJ DNA (HJ1-HJ4) (structured_DNA)
DNA 1: AGAATCTGCCGAGAGACCGAGCAGAATTCTATGTGTTTACCAAGCGCTG
DNA 2: CAGCGCTTGGTAAACACATAGAATTCTGCTCGGTCTGAGCCGTCTAAGA
DNA 3: TCTTAGACGGCTCACTGGCTGTGGGATCCGAGCTGTCTAGAGACATCGA
DNA 4: TCGATGTCTCTAGACAGCTCGGATCCCACAGCCAGTCTCGGCAGATTCT
binding result [2]: binds | binding result [3]: binds

B3: Thermus thermophilus RuvA (natural protein, UniProt Q9F1Q3 1-191, looked up)
chain: T2 sequence
notes: source: E. coli BL21(DE3) RipL, purified (heat step at 55 °C, Ni-NTA, gel filtration)
stoichiometry N [4]: 4
